Experimental data published in patent publication US20220308072A1.

Legend:
[1] = molecular target: Recombinant, his tagged full length human frataxin protein (Abcam ab95502) (human) (UniProt Q16595); experiment: Simoa sandwich 2-step; capture Ab-1; 150 pM SβG
[2] = molecular target: Recombinant, his tagged full length human frataxin protein (Abcam ab95502) (human) (UniProt Q16595); experiment: Simoa sandwich 3-step; capture Ab-1
[3] = molecular target: Recombinant, his tagged full length human frataxin protein (Abcam ab95502) (human) (UniProt Q16595); experiment: Simoa sandwich 2-step (35 min-5 min); capture Ab-1; with helper beads
[4] = molecular target: Recombinant, his tagged full length human frataxin protein (Abcam ab95502) (human) (UniProt Q16595); experiment: Simoa sandwich 2-step; capture Ab-2; frataxin 100 pg/mL
[5] = molecular target: Recombinant, his tagged full length human frataxin protein (Abcam ab95502) (human) (UniProt Q16595); experiment: Simoa sandwich 2-step; capture Ab-4; frataxin 1000 pg/mL
[6] = molecular target: Recombinant, his tagged full length human frataxin protein (Abcam ab95502) (human) (UniProt Q16595); experiment: Simoa sandwich 3-step; capture Ab-5; frataxin 1000 pg/mL
[7] = molecular target: Recombinant, his tagged full length human frataxin protein (Abcam ab95502) (human) (UniProt Q16595); experiment: Simoa sandwich 3-step; capture Ab-5; frataxin 100 pg/mL
[8] = molecular target: Recombinant, his tagged full length human frataxin protein (Abcam ab95502) (human) (UniProt Q16595); experiment: Simoa sandwich 2-step (35 min-5 min); capture Ab-1; with helper beads; frataxin 18.5 pg/mL
[9] = molecular target: Recombinant, his tagged full length human frataxin protein (Abcam ab95502) (human) (UniProt Q16595); experiment: Simoa sandwich 3-step; capture Ab-3; frataxin 1000 pg/mL
[10] = molecular target: Recombinant, his tagged full length human frataxin protein (Abcam ab95502) (human) (UniProt Q16595); experiment: Simoa sandwich 2-step (120 min-5 min); capture Ab-1; Diluent 1 + 10% NCS; frataxin 333 pg/mL
[11] = molecular target: Recombinant, his tagged full length human frataxin protein (Abcam ab95502) (human) (UniProt Q16595); experiment: Simoa sandwich 2-step; capture Ab-1; frataxin 167 pg/mL
[12] = molecular target: Recombinant, his tagged full length human frataxin protein (Abcam ab95502) (human) (UniProt Q16595); experiment: Simoa sandwich; capture Ab-1; no helper beads; frataxin 167 pg/mL
[13] = molecular target: Recombinant, his tagged full length human frataxin protein (Abcam ab95502) (human) (UniProt Q16595); experiment: Simoa sandwich 3-step; capture Ab-2; frataxin 100 pg/mL
[14] = molecular target: Recombinant, his tagged full length human frataxin protein (Abcam ab95502) (human) (UniProt Q16595); experiment: Simoa sandwich 2-step; capture Ab-1; 150 pM SβG; frataxin 6.17 pg/mL
[15] = molecular target: Recombinant, his tagged full length human frataxin protein (Abcam ab95502) (human) (UniProt Q16595); experiment: Simoa sandwich 2-step (120 min-5 min); capture Ab-1; Diluent 1 + 5% NCS; frataxin 1.37 pg/mL
[16] = molecular target: Recombinant, his tagged full length human frataxin protein (Abcam ab95502) (human) (UniProt Q16595); experiment: Simoa sandwich 3-step; capture Ab-1; frataxin 10000 pg/mL
[17] = molecular target: Recombinant, his tagged full length human frataxin protein (Abcam ab95502) (human) (UniProt Q16595); experiment: Simoa sandwich 2-step; capture Ab-1; frataxin 2.06 pg/mL
[18] = molecular target: Recombinant, his tagged full length human frataxin protein (Abcam ab95502) (human) (UniProt Q16595); experiment: Simoa sandwich 2-step (120 min-5 min); capture Ab-1; Diluent 1 + 10% NCS; frataxin 0.274 pg/mL
[19] = molecular target: Recombinant, his tagged full length human frataxin protein (Abcam ab95502) (human) (UniProt Q16595); experiment: Simoa sandwich 2-step (120 min-5 min); capture Ab-1; Diluent 1 + 5% NCS; frataxin 0.274 pg/mL
[20] = molecular target: Recombinant, his tagged full length human frataxin protein (Abcam ab95502) (human) (UniProt Q16595); experiment: Simoa sandwich 2-step (120 min-5 min); capture Ab-1; Diluent 1 + 5% NCS; frataxin 22.2 pg/mL
[21] = molecular target: Recombinant, his tagged full length human frataxin protein (Abcam ab95502) (human) (UniProt Q16595); experiment: Simoa sandwich 2-step; capture Ab-2
[22] = molecular target: Recombinant, his tagged full length human frataxin protein (Abcam ab95502) (human) (UniProt Q16595); experiment: Simoa sandwich 2-step; capture Ab-4; frataxin 100 pg/mL
[23] = molecular target: Recombinant, his tagged full length human frataxin protein (Abcam ab95502) (human) (UniProt Q16595); experiment: Simoa sandwich 2-step (120 min-5 min); capture Ab-1; frataxin 2000 pg/mL
[24] = molecular target: Recombinant, his tagged full length human frataxin protein (Abcam ab95502) (human) (UniProt Q16595); experiment: Simoa sandwich; capture Ab-1; no helper beads; frataxin 500 pg/mL
[25] = molecular target: Recombinant, his tagged full length human frataxin protein (Abcam ab95502) (human) (UniProt Q16595); experiment: Simoa sandwich 2-step (120 min-5 min); capture Ab-1; Diluent 1 + 5% NCS; frataxin 111 pg/mL
[26] = molecular target: Recombinant, his tagged full length human frataxin protein (Abcam ab95502) (human) (UniProt Q16595); experiment: Simoa sandwich 2-step (120 min-5 min); capture Ab-1; Diluent 1 + 5% NCS

UniProt Q16595, sequence (Q16595 42-210): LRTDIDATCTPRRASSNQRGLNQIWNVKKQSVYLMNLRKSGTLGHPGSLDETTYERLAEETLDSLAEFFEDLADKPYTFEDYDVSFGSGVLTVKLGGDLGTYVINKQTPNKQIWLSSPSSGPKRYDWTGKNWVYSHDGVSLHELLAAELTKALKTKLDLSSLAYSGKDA

With “Ab-3, mouse monoclonal [18A5DB1] to Frataxin (Abcam ab110328) (antibody)” the LOD [1] was 0.272 pg/mL, the LOD [2] was 0.59 pg/mL and the Estimated LLOQ [3] was 0.321 pg/mL. For the same substance, the LOD [3] was 0.117 pg/mL, the Ave AEB [4] was 7.14 AEB and the S/B [4] was 88.6. It also gave an Ave AEB [5] of 23.7 AEB, a S/B [5] of 193 and an Ave AEB [6] of 22.9 AEB. The S/B [6] was 120, the Ave AEB [7] was 2.9 AEB and the S/B [7] was 15.2. It also gave an AEB Rep1 [8] of 1.14 AEB, an AEB Rep2 [8] of 1.19 AEB and an Ave AEB [8] of 1.16 AEB. It also gave a S/B [8] of 47.8, an Ave AEB [9] of 0.0854 AEB and a S/B [9] of 18.1. It also gave an Ave AEB [10] of 1.56 AEB, a S/B [10] of 145 and an Ave AEB [11] of 15.1 AEB. The S/B [11] was 145, the AEB Rep1 [12] was 2.42 AEB and the AEB Rep2 [12] was 2.1 AEB. It also gave an Ave AEB [12] of 2.26 AEB, a S/B [12] of 100 and an Ave AEB [13] of 2.03 AEB. For the same substance, the S/B [13] was 45.8, the Ave AEB [14] was 0.521 AEB and the S/B [14] was 11.6. For the same substance, the Ave AEB [15] was 0.02 AEB, the S/B [15] was 1.82 and the Ave AEB [16] was 28.5 AEB. The S/B [16] was 576, the Ave AEB [17] was 0.318 AEB and the S/B [17] was 3.06. The Ave AEB [18] was 0.023 AEB, the S/B [18] was 1.27 and the Ave AEB [19] was 0.0228 AEB. For the same substance, the S/B [19] was 1.26, the Ave AEB [20] was 0.395 AEB and the S/B [20] was 21.9. The LOD [21] was 0.27 pg/mL, the Ave AEB [22] was 8.49 AEB and the S/B [22] was 69.3. It also gave an AEB rep1 [23] of 9.8 AEB, an AEB rep2 [23] of 10.1 AEB and an AEB rep3 [23] of 9.8 AEB. The Ave AEB [23] was 9.9 AEB, the S/B [23] was 1200 and the AEB Rep1 [24] was 7.94 AEB. It also gave an AEB Rep2 [24] of 5.08 AEB, an Ave AEB [24] of 6.51 AEB and a S/B [24] of 288. For the same substance, the Ave AEB [25] was 1.02 AEB, the S/B [25] was 93.1 and the LOD [26] was 0.419 pg/mL.
